In article PMC2191965 (The Journal of Experimental Medicine, 1995):

How the values were obtained:
[1] = target: T1, I-As (Mus musculus, UniProt P06345+P14437); assay type: binding; conditions: purified I-As; compared with ROIV or with wild-type peptide
T1 sequence (P14437 1-233): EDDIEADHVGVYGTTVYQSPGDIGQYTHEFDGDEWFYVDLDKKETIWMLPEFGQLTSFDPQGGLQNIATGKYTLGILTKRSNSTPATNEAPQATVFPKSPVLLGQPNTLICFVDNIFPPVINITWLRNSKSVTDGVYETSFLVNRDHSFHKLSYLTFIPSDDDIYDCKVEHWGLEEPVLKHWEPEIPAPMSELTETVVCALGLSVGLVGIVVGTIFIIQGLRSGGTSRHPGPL
T1 sequence (P06345 28-263): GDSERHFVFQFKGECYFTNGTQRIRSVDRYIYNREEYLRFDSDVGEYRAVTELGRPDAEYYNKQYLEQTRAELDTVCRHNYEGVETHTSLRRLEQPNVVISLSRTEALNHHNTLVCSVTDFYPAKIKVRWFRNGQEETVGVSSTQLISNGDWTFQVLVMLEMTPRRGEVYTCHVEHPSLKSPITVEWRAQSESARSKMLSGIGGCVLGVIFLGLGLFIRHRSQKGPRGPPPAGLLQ

[2] = target: T2, I-Ab (Mus musculus, UniProt P14434+P14483); conditions: purified I-Ab; compared with binding to I-As or with wild-type peptide
T2 sequence (P14434 24-256): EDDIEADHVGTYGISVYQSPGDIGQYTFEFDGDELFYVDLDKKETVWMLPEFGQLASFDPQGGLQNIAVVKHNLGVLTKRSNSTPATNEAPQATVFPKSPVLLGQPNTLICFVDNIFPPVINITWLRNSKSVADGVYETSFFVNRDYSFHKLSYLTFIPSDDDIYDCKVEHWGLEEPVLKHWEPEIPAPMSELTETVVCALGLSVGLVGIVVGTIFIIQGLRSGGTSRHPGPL
T2 sequence (P14483 28-265): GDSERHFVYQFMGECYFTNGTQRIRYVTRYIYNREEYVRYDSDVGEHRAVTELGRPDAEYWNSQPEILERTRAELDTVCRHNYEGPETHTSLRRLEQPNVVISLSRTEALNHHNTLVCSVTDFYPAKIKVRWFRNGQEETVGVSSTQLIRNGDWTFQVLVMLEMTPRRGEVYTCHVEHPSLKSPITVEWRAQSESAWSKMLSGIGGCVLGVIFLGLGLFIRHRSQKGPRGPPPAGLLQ

myelin basic protein 81-100: I-As-restricted epitope myelin basic protein 81-100 (HPADPGNRPHLIRLFSRDAP; UniProt P04370 81-100, looked up, fragment)
Binding to I-As, in words [1]: as well as the ROW | Binding to I-Ab, in words [2]: far less affinity
